What was measured:
[1] = biological target: MIF receptor CD74 ectodomain (CD74 73-232, sCD74) (UniProt P04233); experiment: competition binding assay on sCD74 with biotinylated human MIF as the competed ligand [panel A]
[2] = biological target: MIF receptor CD74 ectodomain (CD74 73-232, sCD74) (UniProt P04233); experiment: SPR (BIAcore 2000), sCD74 immobilized, ligand in solution
[3] = biological target: MIF receptor CD74 ectodomain (CD74 73-232, sCD74) (UniProt P04233); experiment: competition binding assay on sCD74, biotinylated human MIF as competitor
[4] = biological target: MIF receptor CD74 ectodomain (CD74 73-232, sCD74) (UniProt P04233); experiment: SPR (BIAcore 2000), sCD74 immobilized

IC50 (read off the curve) [1]: 300 nM
Kd [2]: 5.42 nM
maximal effect on MIF binding compared with MIF [3]: 50%
affinity relative to MIF (% lower than MIF) [4]: 60
fold higher binding rate than MIF [4]: 3 fold
koff [4]: 0.00066 s⁻¹
kon [4]: 120000 M⁻¹ s⁻¹
Substance: human D-dopachrome tautomerase (D-DT), recombinant native-sequence protein (from UniProt P30046 2-118) (ligand)

From patent US20140030266A1
